B1: C18DA-gGlu3-Sar15-AEPipAc-Tyr-Phe-NMeLeu-Nle-Orn-Pro-Arg-Gly-NH2 (peptide)
peptide: EEEXXXXXXXXXXXXXXXXYFLXXPRG
HELM: PEPTIDE1{[O=C(O)CCCCCCCCCCCCCCCCC(=O)[*:2]].[gGlu].[gGlu].[gGlu].[Sar].[Sar].[Sar].[Sar].[Sar].[Sar].[Sar].[Sar].[Sar].[Sar].[Sar].[Sar].[Sar].[Sar].[Sar].[O=C(CN1CCN(CCN[*:1])CC1)[*:2]].Y.F.[meL].[Nle].[Orn].P.R.G.[am]}$$$$V2.0
SMILES: CCCC[C@H](NC(=O)[C@H](CC(C)C)N(C)C(=O)[C@H](Cc1ccccc1)NC(=O)[C@H](Cc1ccc(O)cc1)NC(=O)CN1CCN(CCNC(=O)CN(C)C(=O)CN(C)C(=O)CN(C)C(=O)CN(C)C(=O)CN(C)C(=O)CN(C)C(=O)CN(C)C(=O)CN(C)C(=O)CN(C)C(=O)CN(C)C(=O)CN(C)C(=O)CN(C)C(=O)CN(C)C(=O)CN(C)C(=O)CN(C)C(=O)CC[C@H](NC(=O)CC[C@H](NC(=O)CC[C@H](NC(=O)CCCCCCCCCCCCCCCCC(=O)O)C(=O)O)C(=O)O)C(=O)O)CC1)C(=O)N[C@@H](CCCN)C(=O)N1CCC[C@H]1C(=O)N[C@@H](CCCNC(=N)N)C(=O)NCC(N)=O
B2: C18DA-gGlu3-Sar15-AEPipAc-Tyr-Phe-NMeLeu-Nle-Orn-NMeAla-Arg-Gly-NH2 (peptide)
peptide: EEEXXXXXXXXXXXXXXXXYFLXXARG
HELM: PEPTIDE1{[O=C(O)CCCCCCCCCCCCCCCCC(=O)[*:2]].[gGlu].[gGlu].[gGlu].[Sar].[Sar].[Sar].[Sar].[Sar].[Sar].[Sar].[Sar].[Sar].[Sar].[Sar].[Sar].[Sar].[Sar].[Sar].[O=C(CN1CCN(CCN[*:1])CC1)[*:2]].Y.F.[meL].[Nle].[Orn].[meA].R.G.[am]}$$$$V2.0
SMILES: CCCC[C@H](NC(=O)[C@H](CC(C)C)N(C)C(=O)[C@H](Cc1ccccc1)NC(=O)[C@H](Cc1ccc(O)cc1)NC(=O)CN1CCN(CCNC(=O)CN(C)C(=O)CN(C)C(=O)CN(C)C(=O)CN(C)C(=O)CN(C)C(=O)CN(C)C(=O)CN(C)C(=O)CN(C)C(=O)CN(C)C(=O)CN(C)C(=O)CN(C)C(=O)CN(C)C(=O)CN(C)C(=O)CN(C)C(=O)CN(C)C(=O)CC[C@H](NC(=O)CC[C@H](NC(=O)CC[C@H](NC(=O)CCCCCCCCCCCCCCCCC(=O)O)C(=O)O)C(=O)O)C(=O)O)CC1)C(=O)N[C@@H](CCCN)C(=O)N(C)[C@@H](C)C(=O)N[C@@H](CCCNC(=N)N)C(=O)NCC(N)=O
B3: C18DA-gGlu3-Sar15-AEPipAc-Tyr-Phe-NMeLeu-Nle-Dbu-NMeAla-Arg-Gly-NH2 (peptide)
peptide: EEEXXXXXXXXXXXXXXXXYFLXXARG
HELM: PEPTIDE1{[O=C(O)CCCCCCCCCCCCCCCCC(=O)[*:2]].[gGlu].[gGlu].[gGlu].[Sar].[Sar].[Sar].[Sar].[Sar].[Sar].[Sar].[Sar].[Sar].[Sar].[Sar].[Sar].[Sar].[Sar].[Sar].[O=C(CN1CCN(CCN[*:1])CC1)[*:2]].Y.F.[meL].[Nle].[Dab].[meA].R.G.[am]}$$$$V2.0
SMILES: CCCC[C@H](NC(=O)[C@H](CC(C)C)N(C)C(=O)[C@H](Cc1ccccc1)NC(=O)[C@H](Cc1ccc(O)cc1)NC(=O)CN1CCN(CCNC(=O)CN(C)C(=O)CN(C)C(=O)CN(C)C(=O)CN(C)C(=O)CN(C)C(=O)CN(C)C(=O)CN(C)C(=O)CN(C)C(=O)CN(C)C(=O)CN(C)C(=O)CN(C)C(=O)CN(C)C(=O)CN(C)C(=O)CN(C)C(=O)CN(C)C(=O)CC[C@H](NC(=O)CC[C@H](NC(=O)CC[C@H](NC(=O)CCCCCCCCCCCCCCCCC(=O)O)C(=O)O)C(=O)O)C(=O)O)CC1)C(=O)N[C@@H](CCN)C(=O)N(C)[C@@H](C)C(=O)N[C@@H](CCCNC(=N)N)C(=O)NCC(N)=O
B4: C18DA-gGlu3-Sar9-AEPipAc-Tyr-Phe-NMeLeu-Nle-Dbu-Pro-Arg-Gly-NH2 (peptide)
peptide: EEEXXXXXXXXXXYFLXXPRG
HELM: PEPTIDE1{[O=C(O)CCCCCCCCCCCCCCCCC(=O)[*:2]].[gGlu].[gGlu].[gGlu].[Sar].[Sar].[Sar].[Sar].[Sar].[Sar].[Sar].[Sar].[Sar].[O=C(CN1CCN(CCN[*:1])CC1)[*:2]].Y.F.[meL].[Nle].[Dab].P.R.G.[am]}$$$$V2.0
SMILES: CCCC[C@H](NC(=O)[C@H](CC(C)C)N(C)C(=O)[C@H](Cc1ccccc1)NC(=O)[C@H](Cc1ccc(O)cc1)NC(=O)CN1CCN(CCNC(=O)CN(C)C(=O)CN(C)C(=O)CN(C)C(=O)CN(C)C(=O)CN(C)C(=O)CN(C)C(=O)CN(C)C(=O)CN(C)C(=O)CN(C)C(=O)CC[C@H](NC(=O)CC[C@H](NC(=O)CC[C@H](NC(=O)CCCCCCCCCCCCCCCCC(=O)O)C(=O)O)C(=O)O)C(=O)O)CC1)C(=O)N[C@@H](CCN)C(=O)N1CCC[C@H]1C(=O)N[C@@H](CCCNC(=N)N)C(=O)NCC(N)=O
B5: C18DA-gGlu3-Sar12-AEPipAc-Tyr-Phe-NMeLeu-Nle-Arg-Pro-Arg-Gly-NH2 (peptide)
peptide: EEEXXXXXXXXXXXXXYFLXRPRG
HELM: PEPTIDE1{[O=C(O)CCCCCCCCCCCCCCCCC(=O)[*:2]].[gGlu].[gGlu].[gGlu].[Sar].[Sar].[Sar].[Sar].[Sar].[Sar].[Sar].[Sar].[Sar].[Sar].[Sar].[Sar].[O=C(CN1CCN(CCN[*:1])CC1)[*:2]].Y.F.[meL].[Nle].R.P.R.G.[am]}$$$$V2.0
SMILES: CCCC[C@H](NC(=O)[C@H](CC(C)C)N(C)C(=O)[C@H](Cc1ccccc1)NC(=O)[C@H](Cc1ccc(O)cc1)NC(=O)CN1CCN(CCNC(=O)CN(C)C(=O)CN(C)C(=O)CN(C)C(=O)CN(C)C(=O)CN(C)C(=O)CN(C)C(=O)CN(C)C(=O)CN(C)C(=O)CN(C)C(=O)CN(C)C(=O)CN(C)C(=O)CN(C)C(=O)CC[C@H](NC(=O)CC[C@H](NC(=O)CC[C@H](NC(=O)CCCCCCCCCCCCCCCCC(=O)O)C(=O)O)C(=O)O)C(=O)O)CC1)C(=O)N[C@@H](CCCNC(=N)N)C(=O)N1CCC[C@H]1C(=O)N[C@@H](CCCNC(=N)N)C(=O)NCC(N)=O
B6: C18DA-gGlu3-Sar15-AEPipAc-Tyr-Phe-NMeLeu-Nle-Dbu-Pro-Arg-Gly-NH2 (peptide)
peptide: EEEXXXXXXXXXXXXXXXXYFLXXPRG
HELM: PEPTIDE1{[O=C(O)CCCCCCCCCCCCCCCCC(=O)[*:2]].[gGlu].[gGlu].[gGlu].[Sar].[Sar].[Sar].[Sar].[Sar].[Sar].[Sar].[Sar].[Sar].[Sar].[Sar].[Sar].[Sar].[Sar].[Sar].[O=C(CN1CCN(CCN[*:1])CC1)[*:2]].Y.F.[meL].[Nle].[Dab].P.R.G.[am]}$$$$V2.0
SMILES: CCCC[C@H](NC(=O)[C@H](CC(C)C)N(C)C(=O)[C@H](Cc1ccccc1)NC(=O)[C@H](Cc1ccc(O)cc1)NC(=O)CN1CCN(CCNC(=O)CN(C)C(=O)CN(C)C(=O)CN(C)C(=O)CN(C)C(=O)CN(C)C(=O)CN(C)C(=O)CN(C)C(=O)CN(C)C(=O)CN(C)C(=O)CN(C)C(=O)CN(C)C(=O)CN(C)C(=O)CN(C)C(=O)CN(C)C(=O)CN(C)C(=O)CC[C@H](NC(=O)CC[C@H](NC(=O)CC[C@H](NC(=O)CCCCCCCCCCCCCCCCC(=O)O)C(=O)O)C(=O)O)C(=O)O)CC1)C(=O)N[C@@H](CCN)C(=O)N1CCC[C@H]1C(=O)N[C@@H](CCCNC(=N)N)C(=O)NCC(N)=O

The binders below were run against T1, human neuromedin U receptor 1 (human, UniProt Q9HB89 24-426) (assay: cell-based or functional assay).
T1 sequence (looked up): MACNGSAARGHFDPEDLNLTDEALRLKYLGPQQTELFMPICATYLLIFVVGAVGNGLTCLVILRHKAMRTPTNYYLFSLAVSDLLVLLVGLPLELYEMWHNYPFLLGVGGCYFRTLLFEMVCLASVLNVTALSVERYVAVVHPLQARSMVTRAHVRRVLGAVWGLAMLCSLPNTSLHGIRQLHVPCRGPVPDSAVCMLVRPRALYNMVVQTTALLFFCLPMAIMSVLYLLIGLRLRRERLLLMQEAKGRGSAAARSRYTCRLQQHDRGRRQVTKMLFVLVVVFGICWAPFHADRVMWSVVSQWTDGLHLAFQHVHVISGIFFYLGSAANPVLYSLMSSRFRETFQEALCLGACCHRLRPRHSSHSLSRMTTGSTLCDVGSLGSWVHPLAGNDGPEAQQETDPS

Question: How did the EC50 (hNMUR1) buffer turn out when B1 was run?
Answer: > 1000 nM

Question: How did the EC50 (hNMUR1) buffer turn out when B2 was run?
Answer: > 1000 nM

Question: B3 was tested. Which EC50 (hNMUR1) buffer did it give?
Answer: > 1000 nM

Question: How did the EC50 (hNMUR1) buffer turn out when B4 was run?
Answer: 1000 nM

Question: How did the EC50 (hNMUR1) buffer turn out when B5 was run?
Answer: 200 nM

Question: For B6, which EC50 (hNMUR1) buffer is on record?
Answer: > 1000 nM
